Results on 2 substances are retold here after publication PMC5359885.

The target in assay [1] is purified human spectrin (Sigma) (human) (UniProt P02549). Kind of assay: ELISA; spectrin coated on the plate; serially diluted His-tagged protein in PBS, overnight at 4 °C; detected with anti-His tag antibody; Scatchard analysis. (In general: In an ELISA, binding on a coated surface is turned into a signal by an enzyme label.)
Assay [2] has as its target F-actin (G-actin from Cytoskeleton polymerized to F-actin) (UniProt P68135). Kind of assay: co-sedimentation; Actin Binding Protein Spin-Down Assay kit; F-actin (7 μM) incubated with His-tagged protein (SURFIN4.2^WRD2-His 12.5 to 0.0 μM; His control 7.0 μM; Pf332^WRD 4.2 μM) at room temperature 30 min; 150,000×g 1.5 h at 24 °C; Western blot of supernatant and pellet, densitometry, one-site specific binding model. In general terms: In western blotting, separated proteins are transferred to a membrane and probed.

For another assay, the target named is Spectrin (Homo sapiens) (UniProt P02549). Particulars: cited from earlier work.

Chain of UniProt P02549 (P02549 whole entry, chain 1 of 2): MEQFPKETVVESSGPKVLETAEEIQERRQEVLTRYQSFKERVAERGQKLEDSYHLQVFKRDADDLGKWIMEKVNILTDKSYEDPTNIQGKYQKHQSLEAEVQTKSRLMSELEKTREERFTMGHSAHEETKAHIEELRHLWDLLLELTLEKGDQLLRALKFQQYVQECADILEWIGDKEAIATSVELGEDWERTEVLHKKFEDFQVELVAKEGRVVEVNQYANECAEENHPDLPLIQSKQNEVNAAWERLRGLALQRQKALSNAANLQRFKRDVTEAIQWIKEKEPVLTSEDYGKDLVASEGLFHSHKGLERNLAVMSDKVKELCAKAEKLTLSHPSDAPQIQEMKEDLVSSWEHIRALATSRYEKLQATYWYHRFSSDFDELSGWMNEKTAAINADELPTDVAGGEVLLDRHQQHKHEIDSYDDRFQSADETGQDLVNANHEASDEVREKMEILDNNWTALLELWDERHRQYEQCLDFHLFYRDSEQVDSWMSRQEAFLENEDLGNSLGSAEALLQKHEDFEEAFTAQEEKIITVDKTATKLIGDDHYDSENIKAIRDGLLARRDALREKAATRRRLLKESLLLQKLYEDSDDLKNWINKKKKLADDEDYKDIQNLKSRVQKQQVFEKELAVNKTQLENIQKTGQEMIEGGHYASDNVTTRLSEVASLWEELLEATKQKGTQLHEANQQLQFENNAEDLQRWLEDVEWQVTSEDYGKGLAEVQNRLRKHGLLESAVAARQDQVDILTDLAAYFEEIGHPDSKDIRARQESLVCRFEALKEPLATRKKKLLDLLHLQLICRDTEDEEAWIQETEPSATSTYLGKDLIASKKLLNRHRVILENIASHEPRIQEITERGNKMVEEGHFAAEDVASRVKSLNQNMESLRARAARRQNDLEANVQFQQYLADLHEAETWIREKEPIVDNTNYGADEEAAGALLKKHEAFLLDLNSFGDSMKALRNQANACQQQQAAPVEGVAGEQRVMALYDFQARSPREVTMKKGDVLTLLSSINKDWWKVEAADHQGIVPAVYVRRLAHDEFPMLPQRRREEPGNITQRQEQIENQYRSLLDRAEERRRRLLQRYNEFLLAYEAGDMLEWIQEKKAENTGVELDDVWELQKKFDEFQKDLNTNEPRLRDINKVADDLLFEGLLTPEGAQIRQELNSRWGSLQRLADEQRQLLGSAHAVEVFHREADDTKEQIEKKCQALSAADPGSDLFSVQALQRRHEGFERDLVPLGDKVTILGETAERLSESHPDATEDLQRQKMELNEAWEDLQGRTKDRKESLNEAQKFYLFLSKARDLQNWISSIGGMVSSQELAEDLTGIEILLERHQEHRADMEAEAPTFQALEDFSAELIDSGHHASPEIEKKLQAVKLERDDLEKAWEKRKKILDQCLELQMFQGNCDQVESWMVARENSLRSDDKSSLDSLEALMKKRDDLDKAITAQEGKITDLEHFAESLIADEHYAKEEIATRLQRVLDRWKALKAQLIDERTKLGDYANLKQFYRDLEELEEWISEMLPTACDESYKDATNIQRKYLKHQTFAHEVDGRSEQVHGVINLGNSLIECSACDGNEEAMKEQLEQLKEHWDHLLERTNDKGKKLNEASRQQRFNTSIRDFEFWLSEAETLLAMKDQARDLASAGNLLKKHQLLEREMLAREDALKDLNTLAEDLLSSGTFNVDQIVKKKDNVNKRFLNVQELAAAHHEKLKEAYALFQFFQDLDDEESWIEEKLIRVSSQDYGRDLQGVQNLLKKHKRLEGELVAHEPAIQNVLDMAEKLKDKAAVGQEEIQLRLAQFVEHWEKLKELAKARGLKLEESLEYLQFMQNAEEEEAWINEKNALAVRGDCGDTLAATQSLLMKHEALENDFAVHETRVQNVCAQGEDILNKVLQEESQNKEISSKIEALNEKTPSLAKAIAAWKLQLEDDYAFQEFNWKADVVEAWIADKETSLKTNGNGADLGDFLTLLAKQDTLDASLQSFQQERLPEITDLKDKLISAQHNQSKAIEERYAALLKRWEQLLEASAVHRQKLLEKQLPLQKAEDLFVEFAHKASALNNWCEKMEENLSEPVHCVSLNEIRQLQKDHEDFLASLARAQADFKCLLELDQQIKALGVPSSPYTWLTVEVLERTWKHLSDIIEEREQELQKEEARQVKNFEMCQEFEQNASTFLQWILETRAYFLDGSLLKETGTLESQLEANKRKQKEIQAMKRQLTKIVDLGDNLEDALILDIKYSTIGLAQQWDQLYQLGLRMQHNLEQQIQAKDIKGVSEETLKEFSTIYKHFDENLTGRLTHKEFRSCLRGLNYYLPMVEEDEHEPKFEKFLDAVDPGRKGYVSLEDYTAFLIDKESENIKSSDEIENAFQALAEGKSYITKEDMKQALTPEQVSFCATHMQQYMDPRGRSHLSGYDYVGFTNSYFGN
Chain of UniProt P02549 (P11277 2-2137, chain 2 of 2, further chain): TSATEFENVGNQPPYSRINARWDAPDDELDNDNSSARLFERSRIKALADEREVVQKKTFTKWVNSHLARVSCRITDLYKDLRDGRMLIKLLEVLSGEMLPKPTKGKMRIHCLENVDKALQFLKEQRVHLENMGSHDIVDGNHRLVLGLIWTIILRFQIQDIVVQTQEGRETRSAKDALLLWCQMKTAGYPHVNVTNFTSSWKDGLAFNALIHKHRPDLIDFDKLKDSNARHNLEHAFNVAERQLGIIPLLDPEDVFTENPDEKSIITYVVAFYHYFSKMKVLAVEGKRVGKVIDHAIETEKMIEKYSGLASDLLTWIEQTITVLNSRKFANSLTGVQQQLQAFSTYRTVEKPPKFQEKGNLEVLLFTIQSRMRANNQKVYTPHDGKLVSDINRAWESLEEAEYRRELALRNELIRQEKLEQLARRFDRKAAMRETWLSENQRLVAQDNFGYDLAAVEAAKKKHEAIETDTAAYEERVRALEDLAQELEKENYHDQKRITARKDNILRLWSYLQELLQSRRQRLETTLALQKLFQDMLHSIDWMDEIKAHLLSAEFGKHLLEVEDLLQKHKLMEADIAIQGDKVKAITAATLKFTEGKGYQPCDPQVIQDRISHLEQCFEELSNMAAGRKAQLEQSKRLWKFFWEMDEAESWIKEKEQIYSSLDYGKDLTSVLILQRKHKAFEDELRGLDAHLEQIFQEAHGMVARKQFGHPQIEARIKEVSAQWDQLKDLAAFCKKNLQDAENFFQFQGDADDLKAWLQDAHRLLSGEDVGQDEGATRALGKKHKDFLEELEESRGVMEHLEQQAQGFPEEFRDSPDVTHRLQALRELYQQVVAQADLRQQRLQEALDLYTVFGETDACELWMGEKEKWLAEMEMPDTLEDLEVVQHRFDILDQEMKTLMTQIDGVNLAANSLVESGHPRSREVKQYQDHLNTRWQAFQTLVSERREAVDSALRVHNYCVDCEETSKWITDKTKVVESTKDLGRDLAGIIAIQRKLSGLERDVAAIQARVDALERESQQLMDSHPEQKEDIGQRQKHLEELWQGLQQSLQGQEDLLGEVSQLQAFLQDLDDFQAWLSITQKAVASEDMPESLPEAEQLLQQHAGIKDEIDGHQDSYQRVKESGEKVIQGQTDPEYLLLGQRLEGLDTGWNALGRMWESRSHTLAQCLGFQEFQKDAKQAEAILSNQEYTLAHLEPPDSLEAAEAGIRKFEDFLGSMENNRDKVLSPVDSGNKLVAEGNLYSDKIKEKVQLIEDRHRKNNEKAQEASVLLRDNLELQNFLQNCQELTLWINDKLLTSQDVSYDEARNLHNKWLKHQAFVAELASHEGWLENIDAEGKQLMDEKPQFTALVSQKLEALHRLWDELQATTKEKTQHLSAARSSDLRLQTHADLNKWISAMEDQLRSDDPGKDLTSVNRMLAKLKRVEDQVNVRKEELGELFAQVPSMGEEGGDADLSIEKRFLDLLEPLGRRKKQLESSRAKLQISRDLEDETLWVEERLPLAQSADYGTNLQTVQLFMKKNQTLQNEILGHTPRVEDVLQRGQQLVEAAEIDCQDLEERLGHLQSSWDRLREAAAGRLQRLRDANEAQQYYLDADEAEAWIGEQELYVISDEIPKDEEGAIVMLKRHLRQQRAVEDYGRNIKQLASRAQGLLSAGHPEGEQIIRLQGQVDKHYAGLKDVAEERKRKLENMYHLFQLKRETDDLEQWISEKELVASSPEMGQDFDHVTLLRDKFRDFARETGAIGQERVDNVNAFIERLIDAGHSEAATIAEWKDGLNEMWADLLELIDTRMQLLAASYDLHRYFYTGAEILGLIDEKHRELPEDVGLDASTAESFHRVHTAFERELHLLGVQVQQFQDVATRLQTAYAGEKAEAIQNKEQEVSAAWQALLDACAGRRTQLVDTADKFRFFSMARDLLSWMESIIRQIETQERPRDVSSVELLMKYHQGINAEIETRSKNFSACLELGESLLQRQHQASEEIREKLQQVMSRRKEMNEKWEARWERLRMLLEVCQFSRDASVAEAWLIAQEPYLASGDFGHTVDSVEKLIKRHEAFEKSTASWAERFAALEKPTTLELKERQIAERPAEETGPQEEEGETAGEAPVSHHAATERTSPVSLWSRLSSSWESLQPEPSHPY

Regarding “His-tagged recombinant SURFIN4.2 WRD2 (second tryptophan-rich domain of SURFIN4.2, amino acids 1349-1567), expressed in E. coli (domain or fragment)”, the Kd (commonly a measure of binding affinity in units of concentration) in assay [1] came out at 510 nM; in assay [2], 5160 nM.

Take RESA (from UniProt P13830): in the assay with Spectrin (Homo sapiens), the Kd is 880 nM.
